These results are taken from patent US10087225B2, “Formulation of MK2 inhibitor peptides” (MOERAE MATRIX, INC., priority 2015, dated 2018).

What all share (test): Kinase Profiling Assay
Assay type in all cases: biochemical
Common to all, as to conditions: for % activity: 100 μM

Assay [1] addresses Ab1(T315I)(h) (Homo sapiens, UniProt P00519, T315I).
Assay [2] concerns the target T1, DRAK1(h) (Homo sapiens, UniProt Q9UEE5).
T1 sequence (Q9UEE5 1-414): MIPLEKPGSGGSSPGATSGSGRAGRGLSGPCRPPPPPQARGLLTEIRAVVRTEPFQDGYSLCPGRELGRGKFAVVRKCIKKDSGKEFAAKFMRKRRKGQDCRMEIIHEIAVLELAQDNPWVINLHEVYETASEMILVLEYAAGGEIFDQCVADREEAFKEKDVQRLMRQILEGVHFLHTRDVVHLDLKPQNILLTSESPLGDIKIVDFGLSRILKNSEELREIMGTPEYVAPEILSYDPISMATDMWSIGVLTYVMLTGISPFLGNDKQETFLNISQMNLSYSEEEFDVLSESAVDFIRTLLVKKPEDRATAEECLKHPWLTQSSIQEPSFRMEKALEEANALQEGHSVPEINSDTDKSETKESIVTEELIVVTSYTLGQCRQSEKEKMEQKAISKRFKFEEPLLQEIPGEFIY

For assay [3], the target named is EGFR(L858R)(h) (Homo sapiens, UniProt P00533, L858R).
In assay [4] the target is EphA4(h) (Homo sapiens, UniProt P54764).
Sequence of EphA4(h) (P54764 20-986): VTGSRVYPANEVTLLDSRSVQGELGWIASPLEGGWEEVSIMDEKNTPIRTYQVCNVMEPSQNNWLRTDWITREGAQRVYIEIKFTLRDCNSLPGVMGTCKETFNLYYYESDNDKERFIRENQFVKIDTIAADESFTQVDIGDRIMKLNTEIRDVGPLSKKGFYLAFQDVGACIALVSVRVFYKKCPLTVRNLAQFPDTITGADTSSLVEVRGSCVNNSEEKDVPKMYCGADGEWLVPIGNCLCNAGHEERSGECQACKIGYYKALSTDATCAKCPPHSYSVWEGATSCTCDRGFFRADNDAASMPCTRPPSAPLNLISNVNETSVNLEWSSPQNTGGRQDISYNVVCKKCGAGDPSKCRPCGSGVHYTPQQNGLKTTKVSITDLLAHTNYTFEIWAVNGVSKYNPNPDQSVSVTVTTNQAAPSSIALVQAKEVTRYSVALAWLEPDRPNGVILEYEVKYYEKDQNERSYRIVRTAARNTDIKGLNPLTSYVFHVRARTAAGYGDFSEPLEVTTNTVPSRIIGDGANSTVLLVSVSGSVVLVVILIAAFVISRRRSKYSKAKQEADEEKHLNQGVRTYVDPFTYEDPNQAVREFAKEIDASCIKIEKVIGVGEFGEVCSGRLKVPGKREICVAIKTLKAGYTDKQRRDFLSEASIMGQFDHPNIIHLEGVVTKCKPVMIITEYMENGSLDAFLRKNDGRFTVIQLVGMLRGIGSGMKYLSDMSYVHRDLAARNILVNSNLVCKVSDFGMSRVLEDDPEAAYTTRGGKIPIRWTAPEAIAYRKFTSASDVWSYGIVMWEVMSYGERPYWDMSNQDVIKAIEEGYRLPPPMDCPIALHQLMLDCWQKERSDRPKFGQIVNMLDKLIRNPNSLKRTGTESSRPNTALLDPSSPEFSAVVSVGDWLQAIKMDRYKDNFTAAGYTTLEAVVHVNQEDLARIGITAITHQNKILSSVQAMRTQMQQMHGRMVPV
Assay [5] concerns the target ErbB4(h) (Homo sapiens, UniProt Q15303).
Assay [6] has as its target Fms(h) (Homo sapiens, UniProt P07333).
For assay [7], the target named is T2, Haspin(h) (Homo sapiens, UniProt Q8TF76).
T2 sequence (Q8TF76 1-798): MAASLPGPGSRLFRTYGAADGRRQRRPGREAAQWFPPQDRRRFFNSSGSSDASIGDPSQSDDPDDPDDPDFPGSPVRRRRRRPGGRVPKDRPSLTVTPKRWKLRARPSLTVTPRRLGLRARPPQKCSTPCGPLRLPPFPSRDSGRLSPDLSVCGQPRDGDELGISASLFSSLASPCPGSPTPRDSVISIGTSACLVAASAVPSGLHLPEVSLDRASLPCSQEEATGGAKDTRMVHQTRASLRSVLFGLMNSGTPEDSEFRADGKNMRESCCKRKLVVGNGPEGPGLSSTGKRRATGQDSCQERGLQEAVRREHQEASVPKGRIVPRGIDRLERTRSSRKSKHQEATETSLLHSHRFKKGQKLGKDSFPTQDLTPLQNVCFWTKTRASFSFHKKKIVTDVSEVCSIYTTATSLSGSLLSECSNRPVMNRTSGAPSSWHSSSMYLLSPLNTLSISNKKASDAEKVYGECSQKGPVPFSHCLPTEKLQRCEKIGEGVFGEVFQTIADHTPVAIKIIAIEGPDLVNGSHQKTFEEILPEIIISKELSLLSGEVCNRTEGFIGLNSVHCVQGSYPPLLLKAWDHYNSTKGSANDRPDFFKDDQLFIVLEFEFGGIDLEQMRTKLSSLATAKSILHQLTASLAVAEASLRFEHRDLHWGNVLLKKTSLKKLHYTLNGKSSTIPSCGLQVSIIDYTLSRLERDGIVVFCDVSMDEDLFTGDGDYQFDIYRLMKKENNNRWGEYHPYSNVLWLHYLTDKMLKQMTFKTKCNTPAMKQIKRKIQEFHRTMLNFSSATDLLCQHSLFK

The target of assay [8] is PAK4(h) (Homo sapiens, UniProt O96013).
Sequence of PAK4(h) (O96013 whole entry): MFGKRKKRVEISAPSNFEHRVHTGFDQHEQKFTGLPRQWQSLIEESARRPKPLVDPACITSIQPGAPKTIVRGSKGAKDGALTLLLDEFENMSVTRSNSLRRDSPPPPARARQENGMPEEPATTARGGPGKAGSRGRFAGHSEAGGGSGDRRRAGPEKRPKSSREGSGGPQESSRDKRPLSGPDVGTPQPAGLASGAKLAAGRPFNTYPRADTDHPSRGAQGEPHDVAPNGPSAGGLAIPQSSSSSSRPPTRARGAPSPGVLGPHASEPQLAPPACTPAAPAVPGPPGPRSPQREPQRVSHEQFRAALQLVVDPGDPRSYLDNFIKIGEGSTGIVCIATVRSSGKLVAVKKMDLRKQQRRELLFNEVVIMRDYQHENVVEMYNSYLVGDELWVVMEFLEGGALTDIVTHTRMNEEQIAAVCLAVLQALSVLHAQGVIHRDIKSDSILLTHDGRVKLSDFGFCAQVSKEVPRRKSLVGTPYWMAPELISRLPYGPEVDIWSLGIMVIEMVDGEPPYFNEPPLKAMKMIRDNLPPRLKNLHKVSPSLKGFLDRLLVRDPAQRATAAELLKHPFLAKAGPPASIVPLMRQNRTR
Assay [9] deals with T3, PKG1α(h) (Homo sapiens, UniProt Q13976).
T3 sequence (Q13976 1-671): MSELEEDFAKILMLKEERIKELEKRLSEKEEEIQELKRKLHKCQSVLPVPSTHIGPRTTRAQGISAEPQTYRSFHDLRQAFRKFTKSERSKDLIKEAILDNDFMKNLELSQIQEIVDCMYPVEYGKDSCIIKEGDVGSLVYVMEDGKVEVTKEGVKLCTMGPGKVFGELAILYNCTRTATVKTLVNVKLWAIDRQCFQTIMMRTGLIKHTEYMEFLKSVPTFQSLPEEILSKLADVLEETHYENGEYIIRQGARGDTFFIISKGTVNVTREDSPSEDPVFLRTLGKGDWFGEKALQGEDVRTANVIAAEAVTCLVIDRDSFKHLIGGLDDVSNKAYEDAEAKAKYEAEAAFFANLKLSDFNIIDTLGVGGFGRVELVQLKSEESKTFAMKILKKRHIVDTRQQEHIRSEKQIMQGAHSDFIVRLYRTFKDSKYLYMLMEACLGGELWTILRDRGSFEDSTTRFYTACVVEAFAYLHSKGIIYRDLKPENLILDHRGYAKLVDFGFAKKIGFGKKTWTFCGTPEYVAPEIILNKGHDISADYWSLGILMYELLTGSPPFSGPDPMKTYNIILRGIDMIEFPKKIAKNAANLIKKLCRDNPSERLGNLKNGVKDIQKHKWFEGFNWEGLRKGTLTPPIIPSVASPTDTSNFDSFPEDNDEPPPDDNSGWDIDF

The target in assay [10] is Ret(h) (Homo sapiens, UniProt P07949).
The target of assay [11] is TrkB(h) (Homo sapiens, UniProt Q16620).
Assay [12] concerns the target T4, TSSK1(h) (Homo sapiens, UniProt Q9BXA7).
T4 sequence (Q9BXA7 1-367): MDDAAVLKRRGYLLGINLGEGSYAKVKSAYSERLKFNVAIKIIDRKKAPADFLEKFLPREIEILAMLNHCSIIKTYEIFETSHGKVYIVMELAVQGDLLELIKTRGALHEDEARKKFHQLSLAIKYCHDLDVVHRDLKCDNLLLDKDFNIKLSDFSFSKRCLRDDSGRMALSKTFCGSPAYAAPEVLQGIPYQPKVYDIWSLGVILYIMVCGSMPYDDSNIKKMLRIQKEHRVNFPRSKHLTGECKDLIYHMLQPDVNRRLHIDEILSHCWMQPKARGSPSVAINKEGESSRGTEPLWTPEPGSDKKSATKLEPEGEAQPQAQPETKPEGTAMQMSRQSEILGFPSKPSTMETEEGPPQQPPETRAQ

Sequence of ErbB4(h) (Q15303 26-1308): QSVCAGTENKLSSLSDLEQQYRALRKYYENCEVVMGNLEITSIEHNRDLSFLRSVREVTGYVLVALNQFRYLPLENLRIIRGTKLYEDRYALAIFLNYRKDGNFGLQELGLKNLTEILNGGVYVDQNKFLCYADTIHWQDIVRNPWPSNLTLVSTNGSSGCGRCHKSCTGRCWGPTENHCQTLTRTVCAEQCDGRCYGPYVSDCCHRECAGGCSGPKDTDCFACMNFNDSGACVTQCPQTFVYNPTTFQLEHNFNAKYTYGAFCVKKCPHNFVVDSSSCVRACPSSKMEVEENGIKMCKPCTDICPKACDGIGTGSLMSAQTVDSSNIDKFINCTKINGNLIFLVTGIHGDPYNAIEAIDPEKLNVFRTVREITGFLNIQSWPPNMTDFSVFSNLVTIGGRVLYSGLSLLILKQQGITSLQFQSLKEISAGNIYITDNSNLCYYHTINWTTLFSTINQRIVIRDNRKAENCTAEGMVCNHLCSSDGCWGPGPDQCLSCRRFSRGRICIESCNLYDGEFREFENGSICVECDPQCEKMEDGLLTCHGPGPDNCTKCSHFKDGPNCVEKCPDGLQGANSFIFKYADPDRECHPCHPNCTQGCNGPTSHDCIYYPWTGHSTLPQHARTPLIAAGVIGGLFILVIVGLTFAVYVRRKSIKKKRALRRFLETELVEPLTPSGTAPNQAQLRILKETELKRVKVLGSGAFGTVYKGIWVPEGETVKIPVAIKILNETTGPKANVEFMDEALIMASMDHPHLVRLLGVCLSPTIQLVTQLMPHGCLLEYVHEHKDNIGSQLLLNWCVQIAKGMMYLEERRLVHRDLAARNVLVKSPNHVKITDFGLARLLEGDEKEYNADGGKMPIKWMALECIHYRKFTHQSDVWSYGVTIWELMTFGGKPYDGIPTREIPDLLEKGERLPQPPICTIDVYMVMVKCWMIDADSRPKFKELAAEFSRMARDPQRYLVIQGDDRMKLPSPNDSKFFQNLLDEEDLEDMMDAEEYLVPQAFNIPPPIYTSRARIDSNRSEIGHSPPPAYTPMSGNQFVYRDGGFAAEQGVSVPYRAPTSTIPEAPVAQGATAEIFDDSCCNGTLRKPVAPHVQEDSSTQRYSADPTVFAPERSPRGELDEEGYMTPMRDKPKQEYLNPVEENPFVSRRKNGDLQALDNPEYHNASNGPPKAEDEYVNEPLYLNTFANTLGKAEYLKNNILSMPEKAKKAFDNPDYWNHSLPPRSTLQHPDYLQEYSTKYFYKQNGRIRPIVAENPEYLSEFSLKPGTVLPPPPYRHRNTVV

For H-YARAAARQARAKALARQLGVAA-OH [MMI-0100], the activity at 100 µM in assay [1] stood at 98%; in [2], 47%; in assay [3], 76%; in assay [4] it was 110%; in [5] it was 73%; in assay [6] it was 89%. The activity at 100 µM is 127% in assay [7]; 92% in assay [8]; 82% in assay [9]; 108% in [10]; 4% in assay [11]; 99% in assay [12].
“HRRIKAWLKKIKALARQLGVAA (Mammalian) [MMI-0500]”: the “% activity” value in assay [1] was 16%; in [2] it was 8%; in assay [3], 26%; in assay [4] it was 48%; in [5], 2%; in assay [6], 14%. Moreover, the “% activity” value was 25% in [7]; 86% in assay [8]; 25% in assay [9]; 174% in assay [10]; 12% in [11]; 46% in assay [12].
Consider “YARAAARQARAKALNRQLGVA (Mammalian) [MMI-0200]”, for which the “% activity” value is 108% in assay [1]; 34% in assay [2]; 120% in [3]; 127% in assay [4]; 82% in assay [5]; 92% in [6]. Moreover, the “% activity” value came to 71% in assay [7]; 98% in assay [8]; 70% in [9]; 96% in assay [10]; 7% in assay [11]; 98% in [12].
